Molecular target: the molecule itself
Assay: cryo-EM structure

B1: full-length human NCBE (Na+-dependent Cl-/HCO3- exchanger, SLC4A10) (natural protein, UniProt Q6U841 1-1118, looked up)
chain: MEIKDQGAQMEPLLPTRNDEEAVVDRGGTRSILKTHFEKEDLEGHRTLFIGVHVPLGGRKSHRRHRHRGHKHRKRDRERDSGLEDGRESPSFDTPSQRVQFILGTEDDDEEHIPHDLFTELDEICWREGEDAEWRETARWLKFEEDVEDGGERWSKPYVATLSLHSLFELRSCILNGTVLLDMHANTLEEIADMVLDQQVSSGQLNEDVRHRVHEALMKQHHHQNQKKLTNRIPIVRSFADIGKKQSEPNSMDKNAGQVVSPQSAPACVENKNDVSRENSTVDFSKGLGGQQKGHTSPCGMKQRHEKGPPHQQEREVDLHFMKKIPPGAEASNILVGELEFLDRTVVAFVRLSPAVLLQGLAEVPIPTRFLFILLGPLGKGQQYHEIGRSIATLMTDEVFHDVAYKAKDRNDLVSGIDEFLDQVTVLPPGEWDPSIRIEPPKNVPSQEKRKIPAVPNGTAAHGEAEPHGGHSGPELQRTGRIFGGLILDIKRKAPYFWSDFRDAFSLQCLASFLFLYCACMSPVITFGGLLGEATEGRISAIESLFGASMTGIAYSLFGGQPLTILGSTGPVLVFEKILFKFCKEYGLSYLSLRASIGLWTATLCIILVATDASSLVCYITRFTEEAFASLICIIFIYEALEKLFELSEAYPINMHNDLELLTQYSCNCVEPHNPSNGTLKEWRESNISASDIIWENLTVSECKSLHGEYVGRACGHDHPYVPDVLFWSVILFFSTVTLSATLKQFKTSRYFPTKVRSIVSDFAVFLTILCMVLIDYAIGIPSPKLQVPSVFKPTRDDRGWFVTPLGPNPWWTVIAAIIPALLCTILIFMDQQITAVIINRKEHKLKKGCGYHLDLLMVAVMLGVCSIMGLPWFVAATVLSITHVNSLKLESECSAPGEQPKFLGIREQRVTGLMIFILMGSSVFMTSILKFIPMPVLYGVFLYMGASSLKGIQFFDRIKLFWMPAKHQPDFIYLRHVPLRKVHLFTIIQMSCLGLLWIIKVSRAAIVFPMMVLALVFVRKLMDLLFTKRELSWLDDLMPESKKKKLEDAEKEEEQSMLAMEDEGTVQLPLEGHYRDDPSVINISDEMSKTALWRNLLITADNSKDKESSFPSKSSPS
- stoichiometry N: 2

Source: publication doi:10.64898/2025.12.15.693380 (bioRxiv, 2025)
